Measurements from paper doi:10.1101/2022.07.13.499703.

How the values were obtained:
Test in all cases: crystal structure
[1] = target: BKPyV VP1 A72V-E73Q-E82Q triple mutant (VQQ) pentamer (BK polyomavirus) (UniProt P03088)
[2] = target: BKPyV VP1 E73A variant pentamer (BK polyomavirus) (UniProt P03088)
[3] = target: BKPyV VP1 E73Q variant pentamer (BK polyomavirus) (UniProt P03088)
[4] = target: BKPyV VP1 K69N-E82Q double mutant (N-Q) pentamer (BK polyomavirus) (UniProt P03088)

Substance: BKPyV VP1 A72V-E73Q-E82Q triple mutant (VQQ) pentamer (from UniProt P03088 30-300) (domain or fragment)
- stoichiometry N [1]: 5

Substance: BKPyV VP1 E73A variant pentamer (from UniProt P03088 30-300) (domain or fragment)
- stoichiometry N [2]: 5

Substance: BKPyV VP1 E73Q variant pentamer (from UniProt P03088 30-300) (domain or fragment)
- stoichiometry N [3]: 5

Substance: BKPyV VP1 K69N-E82Q double mutant (N-Q) pentamer (from UniProt P03088 30-300) (domain or fragment)
- stoichiometry N [4]: 5
